Source: patent US12697371B2, “Method for preventing, treating or delaying myocardial damage using neuregulin and composition” (ZENSUN (SHANGHAI) SCIENCE & TECHNOLOGY, CO., LTD., priority 2019, dated 2026)

Test system: rats with acute myocardial infarction caused by left coronary artery ligation
Experiment: Echocardiography, rat acute myocardial infarction, long-term subcutaneous NRG followed by withdrawal through frequency reduction (Example 3)
Type: in vivo, Wistar rats
Protocol: Established in the same way as the rat model of heart failure caused by coronary artery ligation in 5.1, Embodiment 1
The rats were randomly divided into groups and medicated upon coronary artery ligation. According to post-ligation survival, the rats were randomly divided into two groups, including the excipient group and the NRG30 μg/kg group. There were 19 rats in the excipient group and there were 18 rats in the NRG group. Continuous administration of medicine started on the day following the modeling, with subcutaneous administration for 3 times a day, at a dose of 10 μg/kg. Echocardiography was performed on day 14 after modeling. All the animals were medicated continuously until day 38, and the animals in the NRG group were examined by echocardiography. The animals in the NRG group were averagely divided into two subgroups, with the animals in one subgroup continuing to be medicated while the animals in the other subgroup stopped taking medicine at an early stage. The excipient group continued to be medicated. For the continuous NRG administration subgroup, a 3-week withdrawal plan was implemented on day 49: medicated every other day in the first week; medicated every three days in the second week; subcutaneously injected with NRG every four days in the third week. In terms of administration method, the rats were subcutaneously injected with NRG 3 times a day, exactly the same as above. For the NRG withdrawal subgroup, the clinical symptoms of the rats were observed. All the animals underwent echocardiography every week for monitoring of the changes in the cardiac function.
After being anesthetized with 4% isoflurane, the rats were fixed onto the operating board in the left lateral recumbent position. The head of the rats was fixed in the breathing mask of the gaseous anesthesia machine, with isoflurane used for maintenance of anesthesia. After chest hair removal, the skin was disinfected with 75% alcohol and coated with a coupling agent. An echocardiography probe was used to detect any echo signal from the left ventricle of the rats. The left ventricular end-diastolic diameter and left ventricular end-systolic diameter (D) were measured. The left ventricular end-diastolic volume (EDV) and end-systolic volume (ESV) were calculated. Also, the ejection fraction (EF) value was found, EF=(EDV−ESV)/EDV*100%.
All experimental data were expressed in ±SD. GraphPad Prism6 was used for one-way ANOVA analysis. P<0.05 indicates a significant inter-group difference; P<0.01 indicates an extremely significant inter-group difference.

[1] = DAY 14, 30 μg/kg sc (10 μg/kg 3 times a day), continuous
[2] = DAY 21, 30 μg/kg sc (10 μg/kg 3 times a day), continuous
[3] = DAY 28, 30 μg/kg sc (10 μg/kg 3 times a day), continuous
[4] = DAY 35, 30 μg/kg sc (10 μg/kg 3 times a day), continuous
[5] = DAY 38, Administration subgroup, 30 μg/kg sc continued
[6] = DAY 38, Withdrawal subgroup, 30 μg/kg sc until day 38, then stopped
[7] = DAY 42, Administration subgroup, 30 μg/kg sc continued
[8] = DAY 42, Withdrawal subgroup, 30 μg/kg sc until day 38, then stopped
[9] = DAY 49, Administration subgroup, 30 μg/kg sc continued
[10] = DAY 49, Withdrawal subgroup, 30 μg/kg sc until day 38, then stopped
[11] = DAY 56, Administration subgroup, 30 μg/kg sc, 3-week gradual withdrawal by frequency reduction from day 49
[12] = DAY 56, Withdrawal subgroup, 30 μg/kg sc until day 38, then stopped
[13] = DAY 63, Administration subgroup, 30 μg/kg sc, 3-week gradual withdrawal by frequency reduction from day 49
[14] = DAY 63, Withdrawal subgroup, 30 μg/kg sc until day 38, then stopped
[15] = DAY 68, Administration subgroup, 30 μg/kg sc, 3-week gradual withdrawal by frequency reduction from day 49
[16] = DAY 68, Withdrawal subgroup, 30 μg/kg sc until day 38, then stopped
[17] = DAY 74, Administration subgroup, 30 μg/kg sc, 3-week gradual withdrawal by frequency reduction from day 49
[18] = DAY 74, Withdrawal subgroup, 30 μg/kg sc until day 38, then stopped

B1: NRG: fragment of the NRG-1β2 isomer, 177-237 amino acid fragment containing an EGF-like domain (SEQ ID NO: 1); developed by Zensun (protein, listed as Homo sapiens)
chain: SHLVKCAEKEKTFCVNGGECFMVKDLSNPSRYLCKCPNEFTGDRCQNYVMASFYKAEELYQ
With B1 the “LVEDd and LVEDs, cardiac systolic function, left ventricular remodeling” value (30 μg/kg sc, after 35 consecutive days) was “significantly reduce the LVEDd and LVEDs and strengthen the cardiac systolic function, thereby reversing left ventricular remodeling”, the EF [1] was 44.5 ± 7.85 % and the LVEDd [1] was 0.860 ± 0.04 cm. For the same molecule, the LVEDs [1] was 0.694 ± 0.06 cm, the EF [2] was 45.5 ± 7.96 % and the LVEDd [2] was 0.905 ± 0.04 cm. The LVEDs [2] was 0.725 ± 0.06 cm, the EF [3] was 44.3 ± 6.95 % and the LVEDd [3] was 0.928 ± 0.05 cm. It also gave an LVEDs [3] of 0.749 ± 0.06 cm, an EF [4] of 44.9±6.09% and an LVEDd [4] of 0.953±0.05 cm. The LVEDs [4] was 0.767±0.06 cm, the EF [5] was 44.9 ± 7.03% and the LVEDd [5] was 0.953 ± 0.06 cm. It also gave an LVEDs [5] of 0.764 ± 0.07 cm, an EF [6] of 44.7 ± 6.26% and an LVEDd [6] of 0.952 ± 0.05 cm. The LVEDs [6] was 0.767 ± 0.07 cm, the EF [7] was 46.5 ± 4.01 % and the LVEDd [7] was 0.948 ± 0.04 cm. The LVEDs [7] was 0.755 ± 0.04 cm, the EF [8] was 39.1 ± 7.11 % and the LVEDd [8] was 0.969 ± 0.04 cm. It also gave an LVEDs [8] of 0.808 ± 0.05 cm, an EF [9] of 45.0±5.51% and an LVEDd [9] of 0.973±0.07 cm. The LVEDs [9] was 0.783±0.08 cm, the EF [10] was 42.2±5.48% and the LVEDd [10] was 0.987±0.05 cm. The LVEDs [10] was 0.807±0.06 cm, the EF [11] was 38.8 ± 3.78 % and the LVEDd [11] was 1.008 ± 0.06 cm. The LVEDs [11] was 0.843 ± 0.06 cm, the EF [12] was 39.0 ± 6.24 % and the LVEDd [12] was 1.031 ± 0.05 cm. For the same molecule, the LVEDs [12] was 0.859 ± 0.07 cm, the EF [13] was 41.3±4.92% and the LVEDd [13] was 0.989±0.07 cm. For the same molecule, the LVEDs [13] was 0.814±0.08 cm, the EF [14] was 35.4±6.78% and the LVEDd [14] was 1.043±0.06 cm. The LVEDs [14] was 0.887±0.06 cm, the EF [15] was 40.8±4.67% and the LVEDd [15] was 0.976±0.06 cm. It also gave an LVEDs [15] of 0.805±0.07 cm, an EF [16] of 38.9±5.04% and an LVEDd [16] of 1.010±0.06 cm. It also gave an LVEDs [16] of 0.842 ± 0.06 cm, an EF [17] of 38.0 ± 3.81 % and an LVEDd [17] of 1.004 ± 0.05 cm. It also gave an LVEDs [17] of 0.842 ± 0.05 cm, an EF [18] of 34.6 ± 7.55% and an LVEDd [18] of 1.060 ± 0.05 cm. For the same molecule, the LVEDs [18] was 0.905 ± 0.05 cm, the “Effect of sudden withdrawal on cardiac function” value (day 49, withdrawal subgroup stopped after day 38) was “exerted some effect on the cardiac function of the rats” and the “Cardiac function and cardiac remodeling, overall conclusion” value (long-term sc administration followed by withdrawal through frequency reduction) was “can improve the cardiac function of the rats with myocardial infarction and reduce cardiac remodeling”.
